The numbers were not newly measured in article PMC5414288, “^99mTc-radiolabeled GE11-modified peptide for ovarian tumor targeting” (DARU Journal of Pharmaceutical Sciences, 2017), which cites them from elsewhere.

The term Kd denotes the equilibrium constant for the complex coming apart.

The data set addresses EGFR (Homo sapiens) (UniProt P00533).

As for GE11, the Kd was 22 nM.
